Reference: paper PMC5356265, “Increased enzymatic hydrolysis of sugarcane bagasse by a novel glucose- and xylose-stimulated β-glucosidase from Anoxybacillus flavithermus subsp. yunnanensis E13^T” (BMC Biochemistry, 2017)

Tested on: T1, O=[N+]([O-])c1ccc(O[C@@H]2O[C@H](CO)[C@@H](O)[C@H](O)[C@H]2O)cc1
T1 construct: full-length GH1 enzyme, no signal peptide; gene 1347 bp (448 residues deduced), 52 kDa; pET22b in E. coli BL21 (DE3), heat treatment and Ni-NTA purified
Experiment: p-nitrophenol release at A410, Lineweaver-Burk
Type: biochemical, Anoxybacillus flavithermus subsp. yunnanensis
Details: Na2HPO4-citric acid buffer pH 7.0, 60 °C, no added sugar

For “BglP (Bglp) (Anoxybacillus flavithermus subsp. yunnanensis)”, which Km is on record?
The Km was 290 ± 10 µM.
